Measured values reported in paper PMC3338697, “Determination of Membrane Protein Transporter Oligomerization in Native Tissue Using Spatial Fluorescence Intensity Fluctuation Analysis” (PLoS ONE, 2012).

Molecular target: the molecule itself
Assay: fluorescence image moment analysis; CLSM images of rat kidney cryostat sections immunolabelled with primary anti-NBCe1-A antibody and Alexa 488 secondary antibody; proximal tubule basolateral membranes; brightness normalised to non-specifically bound antibody (44±4 iu = 1 MEU)

B1: native NBCe1-A in rat kidney (proximal tubule basolateral cell membranes) (natural protein, rat (endogenous in rat kidney), UniProt Q9JI66-2 1-1035, looked up)
chain: MSTENVEGKPNNLGERGRARSSTFLRVFQPMFNHSIFTSAVSPAAERIRFILGEEDDSPAPPQLFTELDELLAVDGQEMEWKETARWIKFEEKVEQGGERWSKPHVATLSLHSLFELRTCMEKGSIMLDREASSLPQLVEMIADHQIETGLLKPDLKDKVTYTLLRKHRHQTKKSNLRSLADIGKTVSSASRMFSNPDNGSPAMTHRNLTSSSLNDISDKPEKDQLKNKFMKKLPRDAEASNVLVGEVDFLDTPFIAFVRLQQAVMLGALTEVPVPTRFLFILLGPKGKAKSYHEIGRAIATLMSDEVFHDIAYKAKDRHDLIAGIDEFLDEVIVLPPGEWDPAIRIEPPKSLPSSDKRKNMYSGGENVQMNGDTPHDGGHGGGGHGDCEELQRTGRFCGGLIKDIKRKAPFFASDFYDALNIQALSAILFIYLATVTNAITFGGLLGDATDNMQGVLESFLGTAVSGAIFCLFAGQPLTILSSTGPVLVFERLLFNFSKDHSFDYLEFRLWIGLWSAFMCLILVATDASFLVQYFTRFTEEGFSSLISFIFIYDAFKKMIKLADYYPINSDFRVGYNTHFSCACLPPDPVNLSVSNDTTLAPEDLPTVSSTDMYHNATFDWAYLSKKECVKFGGKLVGNNCDFVPDITLMSFILFLGTYTSSMAMKKFKTSRYFPTTARKLISDFAIILSILIFCVIDALVGVDTPKLIVPSEFKPTSPHRGWFVPPFGGNPWWVCLAAAIPALLVTILIFMDQQITAVIVNRKEHKLKKGAGYHLDLFWVAILMVVCSFMALPWYVAATVISIAHIDSLKMETETSAPGEQPKFLGVREQRVTGTLVFILTGLSVFMAPILKFIPMPVLYGVFLYMGVASLNGVQFMDRLKLLLMPLKHQPDFIYLRHVPLRRVHLFTSLQVLCLALLWILKSTVAAIIFPVMILALVAVRKGMDYLFSQHDLSFLDDVIPEKDKKKKEDEKKKKKKKGSLDSDNDDSDCPYSEKVPSIKIPMDITEQQPFLSDNKPLDRERSSTFLERHTSC
notes: Detected by a primary rabbit anti-NBCe1-A antibody and an Alexa 488 secondary antibody; also called endogenous NBCe1-A; immunolabeled NBCe1-A; source: endogenous, rat kidney cryostat sections (bought: Zyagen RF-901)
stoichiometry N: 2
